Data from patent US20260159551A1 (SRI INTERNATIONAL, published 2026).
Ends that are not written are not given here.

B1: MTS2_V1-2 (biotinylated dimeric Ac-FPSWTSKNQQWTNQRQ) (peptide)
peptide: Ac-FPSWTSKNQQWTNQRQ
modifications: also: dimer: C-terminus joined through a linker to a dimeric core, biotinylated, place not given here
notes: Biotinylated for the ELISA and for capture on the streptavidin probe in BLI; also called dimer version of MTS2_V1; biotinylated MTS2_V1-2
B2: MTS3_V1-2 (biotinylated dimeric Ac-SKETYSMNAQRQHERS) (peptide)
peptide: Ac-SKETYSMNAQRQHERS
modifications: also: dimer: C-terminus joined through a linker to a dimeric core, biotinylated, place not given here
notes: Biotinylated for the ELISA; also called dimer version of MTS3_V1; biotinylated MTS3_V1-2

Legend:
[1] = target: T1, Recombinant human transferrin receptor (human, UniProt P02786 89-760, limits assumed); assay: biolayer interferometry (OctetRED 96); biotinylated peptide on streptavidin probe, receptor as analyte; human transferrin receptor
T1 construct: Recombinant protein; also called transferrin receptor (human protein)
Method: (§1) Recombinant human transferrin receptor was absorbed onto high binding ELISA plates at 1 μg/mL. […] Retained MTS peptide was detected using streptavidin-HRP and TMB reagent. The absorbance was measured at 450 nm and is proportional to the amount of MTS peptide captured by transferrin receptor. As shown, MTS2_V1-2 binds to […] in a concentration dependent manner which saturates at higher concentrations. By comparison, MTS3_V1-2 and a scrambled control peptide of MTS2_V1-2 show no binding. The binding affinity of MTS2_V1-2 for transferrin receptor was determined by biolayer interferometry on a OctetRED 96 system. The biotinylated MTS2_V1-2 peptide was captured on streptavidin probe. The kon and koff rate were determined at various concentrations of human or mouse transferrin receptor allowing for determination of the dissociation constant.

[2] = target: T2, Mouse transferrin receptor (mouse, UniProt Q62351 89-763, limits assumed); assay: biolayer interferometry (OctetRED 96); biotinylated peptide on streptavidin probe, receptor as analyte; mouse transferrin receptor
T2 construct: Used as the analyte in BLI; also called mouse receptor
Method: as §1

[3] = target: T1, Recombinant human transferrin receptor; assay: ELISA: recombinant human transferrin receptor coated at 1 ug/mL, biotinylated peptide titrated, detection with streptavidin-HRP/TMB, absorbance at 450 nm
Method: as §1

T1 sequence (P02786 89-760 limits assumed): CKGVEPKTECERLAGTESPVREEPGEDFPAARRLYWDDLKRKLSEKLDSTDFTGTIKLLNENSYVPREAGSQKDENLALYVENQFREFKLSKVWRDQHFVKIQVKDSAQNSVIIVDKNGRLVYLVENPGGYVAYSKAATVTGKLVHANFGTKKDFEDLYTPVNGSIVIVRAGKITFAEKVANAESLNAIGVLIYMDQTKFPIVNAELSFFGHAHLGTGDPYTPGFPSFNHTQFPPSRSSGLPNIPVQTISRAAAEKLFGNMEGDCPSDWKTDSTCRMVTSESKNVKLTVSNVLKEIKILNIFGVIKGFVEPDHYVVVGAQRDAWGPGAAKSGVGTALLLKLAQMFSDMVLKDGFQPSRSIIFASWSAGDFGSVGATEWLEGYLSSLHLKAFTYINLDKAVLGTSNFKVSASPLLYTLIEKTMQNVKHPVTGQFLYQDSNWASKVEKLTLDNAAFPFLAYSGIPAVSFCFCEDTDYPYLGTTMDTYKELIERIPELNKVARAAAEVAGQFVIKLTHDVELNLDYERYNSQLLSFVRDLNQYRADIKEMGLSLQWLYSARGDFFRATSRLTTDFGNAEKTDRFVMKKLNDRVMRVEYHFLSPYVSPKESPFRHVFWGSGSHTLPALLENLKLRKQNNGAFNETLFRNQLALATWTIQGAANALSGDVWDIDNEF
T2 sequence (Q62351 89-763 limits assumed): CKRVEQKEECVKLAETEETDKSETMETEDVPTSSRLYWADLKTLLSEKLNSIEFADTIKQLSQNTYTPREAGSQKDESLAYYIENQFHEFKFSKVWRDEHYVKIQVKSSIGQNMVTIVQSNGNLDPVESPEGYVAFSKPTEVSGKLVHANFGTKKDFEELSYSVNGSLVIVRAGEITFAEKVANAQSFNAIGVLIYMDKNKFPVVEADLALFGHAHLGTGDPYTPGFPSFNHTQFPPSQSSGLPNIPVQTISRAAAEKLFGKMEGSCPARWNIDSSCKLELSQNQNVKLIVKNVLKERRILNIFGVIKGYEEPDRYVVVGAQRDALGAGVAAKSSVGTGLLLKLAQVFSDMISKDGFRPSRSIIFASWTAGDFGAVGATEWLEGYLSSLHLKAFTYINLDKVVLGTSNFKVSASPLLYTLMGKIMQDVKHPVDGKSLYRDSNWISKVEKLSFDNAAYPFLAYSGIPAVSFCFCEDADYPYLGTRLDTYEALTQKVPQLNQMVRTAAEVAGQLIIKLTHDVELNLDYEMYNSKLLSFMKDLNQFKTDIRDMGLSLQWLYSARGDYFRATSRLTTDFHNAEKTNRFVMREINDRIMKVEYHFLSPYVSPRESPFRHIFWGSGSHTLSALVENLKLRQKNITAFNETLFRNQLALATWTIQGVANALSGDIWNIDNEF

Row | Binder | Kd [1] [nM] | Kd [2] [nM] | EC50 (read off the curve) [3] [nM] | binding result [3]
1 | B1 | 210 | 12 | ~100 | –
2 | B2 | – | – | – | no binding (tested: 1000 nM)
